Results published in patent US20190248902A1 (published 2019).
Where a chain is given by its changes, count along the chain named.

T1: Human ASGR-2 (human, UniProt P07307 1-311)
T1 construct: Expressed on HEK 293 cells; cDNA GenBank NM_080913.3; also called huASGR-2; hASGR-2
T1 sequence: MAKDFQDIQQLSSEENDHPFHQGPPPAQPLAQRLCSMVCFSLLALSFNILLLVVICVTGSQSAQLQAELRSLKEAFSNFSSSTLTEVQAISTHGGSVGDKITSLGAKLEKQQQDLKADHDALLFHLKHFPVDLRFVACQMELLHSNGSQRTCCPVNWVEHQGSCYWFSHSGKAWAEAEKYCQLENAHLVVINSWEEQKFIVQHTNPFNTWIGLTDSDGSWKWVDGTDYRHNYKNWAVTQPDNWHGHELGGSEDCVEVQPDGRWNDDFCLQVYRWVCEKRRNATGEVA

T2: Cyno ASGR-1 (cynomolgus monkey, UniProt P07306 1-291 (human entry))
T2 construct: Expressed on HEK 293 cells or as membrane prep on beads; cDNA from XP_005582755; also called cynomologus monkey ASGR-1
T2 chain: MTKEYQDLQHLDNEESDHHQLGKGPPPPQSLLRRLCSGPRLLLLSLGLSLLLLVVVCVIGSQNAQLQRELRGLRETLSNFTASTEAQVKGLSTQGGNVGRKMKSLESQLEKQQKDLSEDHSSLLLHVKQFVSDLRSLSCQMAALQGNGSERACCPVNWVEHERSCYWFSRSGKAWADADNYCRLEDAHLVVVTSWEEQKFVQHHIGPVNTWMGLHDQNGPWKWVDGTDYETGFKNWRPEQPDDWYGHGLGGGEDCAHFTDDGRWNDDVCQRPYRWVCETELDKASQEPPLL

T3: Pig ASGR-1 (pig)
T3 construct: Expressed on HEK 293 cells or as membrane prep on beads; cDNA GenBank NM_001244458
T3 chain: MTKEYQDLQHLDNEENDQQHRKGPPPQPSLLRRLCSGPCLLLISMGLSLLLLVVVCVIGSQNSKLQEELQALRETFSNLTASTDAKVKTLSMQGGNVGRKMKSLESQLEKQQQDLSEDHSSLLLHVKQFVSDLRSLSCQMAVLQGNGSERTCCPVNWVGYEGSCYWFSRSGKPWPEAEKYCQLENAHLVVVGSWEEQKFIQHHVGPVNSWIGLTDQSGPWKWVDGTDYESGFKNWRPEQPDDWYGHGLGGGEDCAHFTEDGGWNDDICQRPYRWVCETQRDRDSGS

B1: 4H6 (antibody, V domains shown)
VH: QVQLVQSGAEVKKPGASVKVSCKASGYTFTDYYLHWVRQAPGQGLEWMGWIHPNSGGTNYAQKFQGRVTMTRDTSISTAYMGLSSLRSDDTAVYYCARDGTSSFDYWGQGTLVTVSS
VL: DIQMTQSPSSVSASVGDRVTITCRASQGISRWLAWYQQKPGKAPKLLIYGASSLQSGVPSRFSGSGSGTDFTLTISSLQPEDFAIYYCQQANSFPFTFGPGTKVDIK
notes: Tested as hybridoma supernatant at normalized concentration
B2: 72G9 (antibody, V domains shown)
VH: EVQLVESGGGLVKPGGSLRLSCAASGFTFSSYSMNWVRQAPGKGLEWVSSISGSSSYIYYADSVKGRFTISRDNAKNSLYLQMNSLRAEDTAVYFCARGGSRGFDPWGQGTLVTVSS
VL: B1 VL with V11L, G28S, S30T, R31S, W32Y, A34N, G50T, I85T, A91S, N92H
notes: as for B1
B3: 56E5 (antibody, V domains shown)
VH: QVQLVQSGAEVKKPGASVKVSCQASGYTFTGYHMHWVRQAPGQGLEWMGWINPNNNATNYAQKFQGRVTMTRDTSISTAYMELRRLRSDDTAVYHCARDGTSSFDYWGQGTLVTVSS
VL: B1 VL with S30R, R31K, G50A, I85T
notes: as for B1
B4: 4A2 (antibody, V domains shown)
VH: QVQLVQSGTEVKKPGASVKVSCKASGYTFTNYDINWVRQATGQGLEWMGWMHPNSGNTGYAQKFQGRVTLTRNTSISTAYMELSSLRSEDTAVYYCASSSGWYYFDYWGQGTLVTVSS
VL: DIVMTQSPDSLAVSLGERATINCKSSQSILHSSNNNNYLAWFQQKPGQPPKLLLYWASTRESGVPDRFSGSGSGTDFTLTISSLQPEDVAVYYCQQYYNTPVTFGPGTKVGIK
notes: as for B1
B5: 4B1 (antibody, V domains shown)
VH: QVQLQESGPGLVKPSETLSLTCSVSGDSISSYSWSWIRQPAGKGLEWIGRIYTSGSTNYIPSLKSRITMSVDTSKKQFSLKLSSVTAADTAVYYCARDLKSSGCLFFDYWGQGTLVTVSS
VL: DIQMTQSPSSLSASVGDRVTITCRASHTIRTYLNWYQQKPGKAPKLLIYAASSLQSGVPSRINGSGSGTDFTLTITNLQPEDFATYYCQQSYNISFTFGPGTKVDIK
notes: as for B1
B6: 194A4 (antibody, V domains shown)
VH: QVQLVQSGTEVKKPGASLKVSCKASGYTFTVYYLNWVRQAPGQGLEWMGWINPNSGGTNYAQKFQGRVTMTRDTSISTAYMELSRLRSDDTAVYYCARGYDILTGWGQGTLVTVSS
VL: EIVLTQSPGTLSLSPGERATLSCRASRGVSNIYLAWYQQKPGQAPRLLIYGASNRATGIPDRFSGSGSGTDFTLTISRLEPEDFAVYYCQHNDYSMFTFGPGTKVDIK
notes: as for B1

Target: T1, Human ASGR-2
Assay: FACS on transfected HEK 293 cells; binding = signal at least 2x irrelevant IgG
Method: Human ASGR-1-specific, ligand competing antibody samples were tested for binding to ASGR-1 from other species (cynomologus monkey ASGR-1, mouse ASGR-1, rat ASGR-1, dog ASGR-1, and pig ASGR-1) as well as to human ASGR-2 in FACS binding assays at normalized antibody concentrations. For cell-based assays, HEK 293 cells expressing the appropriate antigen of interest were mixed with antibody sample or controls, incubated for 1 hour at 4° C., and then washed twice. Cells with bound antibody were then incubated with Alexa Fluor® 647 IgG Fc fragment-specific detection antibody and 7-AAD viability stain for 15 minutes at 4° C., washed once and resuspended in FACS buffer. Samples were analyzed using a BD Accuri™ Flow Cytometer and an Intellicyt HyperCyt Autosampler. As a negative control, supernatants and controls were also screened against HEK 293 cells transfected with empty parental vector. […] For membrane-prep binding assays, ASGR-1 species specific membrane preps were used to coat LumAvidin® microspheres (beads) and tested for binding to selected hybridoma supernatants or controls. Briefly, ASGR-1 species specific membrane preps were incubated with streptavidin-coated LumAvidin® beads for 45 minutes in the dark at room temperature and washed twice. Beads were resuspeneded in FACS buffer containing Stabilguard®. Antigen-bound beads were then incubated with normalized antibody sample for 1 hour in the dark at room temperature, washed twice, incubated with Alexa Fluor® 488 IgG Fc fragment-specific detection antibody for 15 minutes in the dark at room temperature, washed once and finally resuspended in FACS buffer. Samples were analyzed using an Intellicyt iQue™ Screener Platform. FACS buffer supplemented with 1 mM Calcium Chloride was used in all steps. As a negative control, supernatants and controls were also screened against a non-ASGR-1 antigen membrane prep coated on the LumAvidin® beads.

| binding result | Binder |
| --- | --- |
| no binding | B1 |
| no binding | B2 |
| no binding | B3 |
| no binding | B4 |
| no binding | B5 |
| no binding | B6 |

Target: T2, Cyno ASGR-1
Assay: FACS on transfected HEK 293 cells or membrane preps on beads; Y = signal at least 2x irrelevant IgG
Summary of the method: (§1)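 Antibodies at normalized concentrations bound 1 h at 4° C to HEK 293 cells expressing each antigen, then Alexa Fluor 647 anti-Fc plus 7-AAD 15 min at 4° C, flow cytometry; empty-vector cells as negative. Alternatively, species ASGR-1 membrane preps on streptavidin beads, antibody 1 h RT, Alexa Fluor 488 anti-Fc; FACS buffer with 1 mM CaCl2 throughout.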

| binding result | Binder |
| --- | --- |
| binds | B1 |
| binds | B2 |
| binds | B3 |
| binds | B4 |
| binds | B5 |
| binds | B6 |

Target: T3, Pig ASGR-1
Assay: as above
Summary of the method: as §1

| binding result | Binder |
| --- | --- |
| binds | B1 |
| binds | B2 |
| binds | B3 |
| binds | B4 |
| binds | B5 |
| binds | B6 |
